Reference: PMC12747378, “FtsZ phosphorylation modulates tail-core binding to tune cell division in Bacillus subtilis” (PLOS One, 2025)
Changes are numbered by the printed parent chain. Names and notes keep the numbering of the source. Values joined by “and” are separate entries in the source; they are usually repeats but may differ in a detail not shown here. Equal values may be shown once. Read-outs that look alike come from different tables or passages of the source.

T1: FtsZ core (residues 1-315) (Bacillus subtilis, UniProt P17865 1-315)
T1 construct: FtsZ, Bacillus subtilis, globular core, residues 1-315; The printed purification is TALON resin with elution by AcTEV protease; also called FtsZ globular core; tailless core; source: E. coli BL21 Star (DE3), purified
T1 sequence (looked up): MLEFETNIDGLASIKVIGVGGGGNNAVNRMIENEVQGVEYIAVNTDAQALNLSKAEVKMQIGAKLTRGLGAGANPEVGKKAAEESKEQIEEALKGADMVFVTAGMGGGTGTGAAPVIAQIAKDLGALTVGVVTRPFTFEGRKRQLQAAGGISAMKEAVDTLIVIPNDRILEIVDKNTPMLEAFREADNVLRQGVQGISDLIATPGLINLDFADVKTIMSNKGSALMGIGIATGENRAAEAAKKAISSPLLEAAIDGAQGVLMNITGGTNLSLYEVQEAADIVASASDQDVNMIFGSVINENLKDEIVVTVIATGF

T2: FtsZ core (residues 1-315), wild type (Bacillus subtilis, UniProt P17865 1-315)
T2 construct: FtsZ of Bacillus subtilis, globular core, residues 1-315; The plasmid paragraph names 'full-length B. subtilis FtsZ and variants' in pET-28a (His6, TEV site); also called FtsZ Core WT; tailless core; source: E. coli One Shot BL21 Star (DE3), purified (TALON resin, eluted with AcTEV protease); not shown: His6, N-terminal, cleaved
T2 sequence (looked up): T1 sequence (looked up)

T3: FtsZ core (residues 1-315) D210A/D213A (Bacillus subtilis, UniProt P17865 1-315, D210A | D213A)
T3 construct: FtsZ, Bacillus subtilis, globular core, residues 1-315, D210A/D213A; see S1 Appendix; also called acidic patch mutant core; source: E. coli BL21 Star (DE3), purified
T3 sequence (looked up): T1 sequence (looked up) with D210A, D213A

T4: FtsZ core (residues 1-315) M292H/I293W/F294K (Bacillus subtilis, UniProt P17865 1-315, M292H | I293W | F294K)
T4 construct: FtsZ of Bacillus subtilis, globular core, residues 1-315, M292H/I293W/F294K; Vector and tag as for 'FtsZ and variants'; also called FtsZ Core HWK; MIF pocket triple mutant; source: E. coli One Shot BL21 Star (DE3), purified (TALON resin, eluted with AcTEV protease); not shown: His6, N-terminal, cleaved
T4 sequence (looked up): T1 sequence (looked up) with M292H, I293W, F294K

T5: FtsZ core (residues 1-315) D210A/D213A (Bacillus subtilis, UniProt P17865 1-315, D210A | D213A)
T5 construct: FtsZ of Bacillus subtilis, globular core, residues 1-315, D210A/D213A; The sheet's label 'AA' is tied to D210A/D213A by the mean Kd (500.6 nM); Vector and tag as for 'FtsZ and variants'; also called FtsZ Core AA; acidic patch mutant; source: E. coli One Shot BL21 Star (DE3), purified (TALON resin, eluted with AcTEV protease); not shown: His6, N-terminal, cleaved
T5 sequence (looked up): T1 sequence (looked up) with D210A, D213A

B1: MinCN, the 92aa N-terminal domain of MinC (domain or fragment, Bacillus subtilis, UniProt Q01463 1-92, looked up)
chain: MKTKKQQYVTIKGTKNGLTLHLDDACSFDELLDGLQNMLSIEQYTDGKGQKISVHVKLGNRFLYKEQEEQLTELIASKKDLFVHSIDSEVIT
notes: MinC, Bacillus subtilis, N-terminal domain, 92 aa; amplified from B. subtilis genomic DNA; Cloned in pGEX-6P-1 with a PreScission site; cleavage of GST not described; source: E. coli BL21 Star (DE3), purified
B2: FtsZ tail (residues 316-382) (domain or fragment, Bacillus subtilis, UniProt P17865 316-382, looked up)
chain: IEQEKDVTKPQRPSLNQSIKTHNQSVPKREPKREEPQQQNTVSRHTSQPADDTLDIPTFLRNRNKRG
notes: FtsZ, Bacillus subtilis, C-terminal tail, residues 316-382 (67 aa); Cloned in pGEX-6P-3 with a PreScission site; also called C-terminal tail; CTT; source: E. coli BL21 Star (DE3), purified; 15N-labelled in M9 minimal medium for NMR
B3: FtsZ tail (residues 316-382), wild type (domain or fragment, Bacillus subtilis, UniProt P17865 316-382, looked up)
chain: B2 chain
notes: FtsZ of Bacillus subtilis, C-terminal tail, residues 316-382; Cloned into pGEX-6P-3 with a PreScission site; also called FtsZ Tail WT; C-terminal tail; source: E. coli One Shot BL21 Star (DE3), purified
B4: FtsZ tail (residues 316-382) S333E (domain or fragment, Bacillus subtilis, UniProt P17865 316-382, looked up)
chain: B2 chain with S18E
notes: FtsZ, Bacillus subtilis, C-terminal tail, residues 316-382, S333E; pGEX-6P-3 with PreScission site; cleavage of GST not described; also called S333E tail variant; source: E. coli BL21 Star (DE3), purified
B5: FtsZ tail (residues 316-382) S333A (domain or fragment, Bacillus subtilis, UniProt P17865 316-382, looked up)
chain: B2 chain with S18A
notes: FtsZ, Bacillus subtilis, C-terminal tail, residues 316-382, S333A; pGEX-6P-3 with PreScission site; cleavage of GST not described; also called S333A tail variant; source: E. coli BL21 Star (DE3), purified
B6: FtsZ tail (residues 316-382) I334E (domain or fragment, Bacillus subtilis, UniProt P17865 316-382, looked up)
chain: B2 chain with I19E
notes: FtsZ, Bacillus subtilis, C-terminal tail, residues 316-382, I334E; pGEX-6P-3 with PreScission site; cleavage of GST not described; also called I334E tail mutant; source: E. coli BL21 Star (DE3), purified
B7: FtsZ tail (residues 316-382) K335A/H337A (domain or fragment, Bacillus subtilis, UniProt P17865 316-382, looked up)
chain: B2 chain with K20A, H22A
notes: FtsZ, Bacillus subtilis, C-terminal tail, residues 316-382, K335A/H337A; pGEX-6P-3 with PreScission site; cleavage of GST not described; also called K335A/H337A tail double mutant; source: E. coli BL21 Star (DE3), purified
B8: Full-length FtsZ (wild type) (natural protein, Bacillus subtilis, UniProt P17865 1-382, looked up)
chain: MLEFETNIDGLASIKVIGVGGGGNNAVNRMIENEVQGVEYIAVNTDAQALNLSKAEVKMQIGAKLTRGLGAGANPEVGKKAAEESKEQIEEALKGADMVFVTAGMGGGTGTGAAPVIAQIAKDLGALTVGVVTRPFTFEGRKRQLQAAGGISAMKEAVDTLIVIPNDRILEIVDKNTPMLEAFREADNVLRQGVQGISDLIATPGLINLDFADVKTIMSNKGSALMGIGIATGENRAAEAAKKAISSPLLEAAIDGAQGVLMNITGGTNLSLYEVQEAADIVASASDQDVNMIFGSVINENLKDEIVVTVIATGFIEQEKDVTKPQRPSLNQSIKTHNQSVPKREPKREEPQQQNTVSRHTSQPADDTLDIPTFLRNRNKRG
B9: Full-length FtsZ S333E (natural protein, Bacillus subtilis, UniProt P17865 1-382, looked up)
chain: B8 chain with S333E
B10: Full-length FtsZ S333A (natural protein, Bacillus subtilis, UniProt P17865 1-382, looked up)
chain: B8 chain with S333A

Experiments:
[1] = target: T1, FtsZ core (residues 1-315); experiment: ITC; full-length FtsZ or FtsZ core (5 µM) in the cell, FtsZ tail or MinCN (50 µM) in the syringe; TKEG buffer (50 mM Tris pH 8, 50 mM KCl, 1 mM EDTA, 5% glycerol), 25°C; one-site model; conditions: both partners purified
[2] = target: B8; experiment: as above; conditions: both partners purified
[3] = target: T2, FtsZ core (residues 1-315), wild type; experiment: ITC; 5 µM full-length FtsZ or FtsZ core in the cell, 50 µM FtsZ tail or MinCN in the syringe; TKEG buffer (50 mM Tris pH 8, 50 mM KCl, 1 mM EDTA, 5% glycerol), 25°C; 20 injections of 2 µL; each replicate fitted
[4] = target: T1, FtsZ core (residues 1-315); experiment: ITC; displacement: pre-formed MinCN:Core complex (45 µM MinCN + 5 µM Core, 9:1) in the cell, Tail titrated to 10 µM final; TKEG buffer, 25°C; conditions: both partners purified
[5] = target: T3, FtsZ core (residues 1-315) D210A/D213A; experiment: ITC; full-length FtsZ or FtsZ core (5 µM) in the cell, FtsZ tail or MinCN (50 µM) in the syringe; TKEG buffer (50 mM Tris pH 8, 50 mM KCl, 1 mM EDTA, 5% glycerol), 25°C; one-site model; conditions: both partners purified
[6] = target: T2, FtsZ core (residues 1-315), wild type; experiment: ITC; competition: FtsZ tail titrated into a pre-formed MinCN:Core complex (45 µM MinCN + 5 µM Core, 9:1, ~99% occupancy); TKEG buffer, 25°C; conditions: both partners purified
[7] = target: T4, FtsZ core (residues 1-315) …; experiment: ITC; 5 µM full-length FtsZ or FtsZ core in the cell, 50 µM FtsZ tail or MinCN in the syringe; TKEG buffer (50 mM Tris pH 8, 50 mM KCl, 1 mM EDTA, 5% glycerol), 25°C; 20 injections of 2 µL; each replicate fitted; conditions: both partners purified
[8] = target: T5, FtsZ core (residues 1-315) D210A/D213A; experiment: as above; conditions: both partners purified
[9] = target: the molecule itself; experiment: cell-based or functional assay

Binder: B1
Kd [1]: 495 nM and 405 nM
stoichiometry N [1]: 1 ± 0.15
Kd [2]: > 2000 nM
Kd [3]: 418 nM and 447 nM and 621 nM
stoichiometry N [3]: 1.11 and 0.829 and 1.07

Binder: B2
stoichiometry N [4]: 1
Kd [1]: 228 ± 24 nM
Kd [2]: > 2000 nM
Kd [5]: 501 ± 64 nM

Binder: B3
stoichiometry N [6]: 1.03 and 0.948 and 0.919 and 0.965
Kd ([3]; both partners purified): 260 nM and 222 nM and 229 nM and 202 nM
stoichiometry N ([3]; both partners purified): 1.09 and 1.05 and 1.03 and 1.01
binding result [7]: binds
Kd [8]: 428 nM and 529 nM and 545 nM
stoichiometry N [8]: 1.18 and 1.24 and 1.1 and 1.17

Binder: B4
Kd [1]: > 2000 nM

Binder: B5
Kd [1]: > 2000 nM

Binder: B6
Kd [1]: > 2000 nM

Binder: B7
Kd [1]: > 2000 nM

Binder: B8
critical concentration for polymerization (x-intercept of malachite green GTPase rate against FtsZ concentration) [9]: 0.51 µM
specific GTPase activity above the critical concentration (malachite green assay) [9]: 4 GTP/min/FtsZ

Binder: B9
critical concentration for polymerization (x-intercept of malachite green GTPase rate against FtsZ concentration) [9]: 0.37 µM
specific GTPase activity above the critical concentration (malachite green assay) [9]: 5.1 GTP/min/FtsZ

Binder: B10
critical concentration for polymerization (x-intercept of malachite green GTPase rate against FtsZ concentration) [9]: 0.41 µM
specific GTPase activity above the critical concentration (malachite green assay) [9]: 4.7 GTP/min/FtsZ
